Results taken from patent publication US20240279344A1 (CDR LIFE, published 2024).

B1: M0848 scFv (scFv)
scFv: QEQLVESGGGLVTPGTPLTLTCTVSGFSLSSYAMGWVRQAPGKGLEWIGTINDGGTAFYASWVKGRFTISRTSTTVDLRVTSPTTEDTATYFCARAYGSNGDVYWGYFNLWGQGTLVTVSSGGGGSGGGGSGGGGSGGGGASELDLTQTPASVEVAVGGTVTIKCQASQSIGSYLSWYQQKPGQRPKLLIFRASTLASGVSSRFKGSGSGTQFTLTISGVECADAATYYCQQGYSSTNLDNVFGGGTEVVVK
notes: Rabbit scFv identified by phage display
B2: M0849 scFv (scFv)
scFv: QEQLEESGGGLVTPGGTLTLTCTVSGFSLSNYAMGWVRQAPGKGLEWIGTINDGGTAFYAKWLKGRFTISRTSTTVDLKITSPTTEDTATYFCARAYGSNGDVYWGYFNLWGQGTLVTISSGGGGSGGGGSGGGGSGGGGASELVMTQTPSSVSEPVGGTVTIKCQASQSIGSNLAWYQQRPGQPPKLLIYSASTLASGVSSRFKGSGSGTESTLTISGVQAADAATYYCQQGYSSSNVDNVFGGGTELEIL
notes: as for B1
B3: M0850 scFv (scFv)
scFv: QEQLEESGGGLVTPGTPLTLTCTASGFSLSSYAMIWVRQAPGKGLEWIGTINDGGTAFYANWVKGRFTISRTSTTVDLKMTSPTTEDTATYFCARAYGSNGDVYWGYVNLWGQGTLVTVSSGGGGSGGGGSGGGGSGGGGASELVMTQTPASVSEPVGGTVTIKCQASQSIGSNLAWYQQKPGQPPKLLIYAAANLASGVSSRFKGSRSGTEYTLTISGVQAADAATYYCQQGYSSSNVANVFGGGTELEIL
notes: as for B1
B4: M0851 scFv (scFv)
scFv: QEQLEESGGGLVTPGTPLTLTCTASGFSLSSYAMIWVRQAPGKGLEWIGTINDGGTAFYASWVKGRFTISRTSTTVDLKITSPTTEDTATYFCARAYGSNGDVYWGYVNLWGQGTLVTISSGGGGSGGGGSGGGGSGGGGASELVMTQTPSSVSAAVGGTVTINCQASQNIGSVFAWYQQKPGQPPKLLIYKASSLASGVPSRFKGSGSGTQFTLTISGVEAADAATYYCQQGASSSNVDNIFGGGTEVVVK
notes: as for B1
B5: M0852 scFv (scFv)
scFv: QQQLEESGGGLVTPGTPLTLTCTVSGFSLSNYAMGWVRQAPGKGLEWIGTINDGGTAFYANWLKGRFTISRTSTTVDLKITSPTTEDTATYFCARAYGSNGDVYWGYFNLWGQGTLVTVSSGGGGSGGGGSGGGGSGGGGASELVMTQTASPVSAAVGGTVTINCQASQSISSRSLSWYQQKPGQPPKLLIYEASKLASGVPSRFSGSGSGTQFTLTISGVQADDAATYYCQQGYSSSNVDNVFGGGTEVVVK
notes: as for B1
B6: M0853 scFv (scFv)
scFv: QQQLVESGGGLVTPGTPLTLTCTVSGFSLSNYAMGWVRQAPGKGLEWIGTINDGGTAFYANWLKGRFTISRTSTTVDLKITSPTTEDTATYFCARAYGSNGDVYWGYFNLWGQGTLVTVSSGGGGSGGGGSGGGGSGGGGASELVMTQTASPVSAAVGGTVTINCQASQSISSRSLSWYQQKPGQPPKLLIYEASKLASGVPSRFSGSGSGTQFTLTISGVQADDAATYYCQQGYSSSNVDNFGGGTEVVVK
notes: as for B1
B7: M0854 scFv (scFv)
scFv: QSVKESWGRLVTPGGSLTLTCTVSGIDLNNYAMGWVRQAPGKGLEWIGTINNDGATYYPSWARGRFTISKTSTTVDLKITSPTTEDTATYFCARTYGSNGDVYWGYFNLWGQGTLVTVSSGGGGSGGGGSGGGGSGGGGASALELTQTPASVEVAVGGTVTINCQASQSIGGALNWYQQKSGQPPKLLIYLASTLASGVSSRFKGSGSGTQFTLTISGVEAADAATYYCQQGYSASNIDNAFGGGTEVVVK
notes: as for B1
B8: M1297 (bispecific antibody, V domains shown)
VH: EVQLLESGGGSVQPGGSLRLSCTVSGFSLSNYAMSWVRQAPGKGLEWIGIVSSGGTTYYASWAKGRFTISKDTSKNTVYLQMNSLRAEDTASYYCAKDLYYGPSTYFVANLWGQGTSVTVSS
VL: SYELTQPPSVSVSPGQTASITCTADTLSRSYASWYQQKPGQSPVLVIYRDTSRPSGIPERFSGSNSGNTATLTISGTQAMDEADYYCATRPSSGSNFQLFGGGTKLTVL
notes: Variant of humanized M0763; tested in SPR as anti-CD3 Fab x anti-MAGE-A4 scFv bispecific
B9: M1298 (bispecific antibody, V domains shown)
VH: EVQLLESGGGSVQPGGSLRLSCTVSGFSLSNYAMSWVRQAPGKGLEWIGIVSSGGTTYYASWAKGRFTISKDTSKNTVYLQMNSLRAEDTASYYCAKDLYYGPTTYSAANLWGQGTSVTVSS
VL: SYELTQPPSVSVSPGQTASITCTADTLSRSYASWYQQKPGQSPVLVIYRDTSRPSGIPERFSGSNSGNTATLTISGTQAMDEADYYCATRPWPGSNFQLFGGGTKLTVL
notes: as for B8
B10: M1299 (bispecific antibody, V domains shown)
VH: EVQLLESGGGSVQPGGSLRLSCTVSGFSLSNYAMSWVRQAPGKGLEWIGIVSSGGTTYYASWAKGRFTISKDTSKNTVYLQMNSLRAEDTASYYCAKDLYYGPTTYSAANLWGQGTSVTVSS
VL: SYELTQPPSVSVSPGQTASITCTADTLSRSYASWYQQKPGQSPVLVIYRDTSRPSGIPERFSGSNSGNTATLTISGTQAMDEADYYCATRPFPGSNFQLFGGGTKLTVL
notes: as for B8
B11: M1300 (bispecific antibody, V domains shown)
VH: EVQLLESGGGSVQPGGSLRLSCTVSGFSLSNYAMSWVRQAPGKGLEWIGIVSSGGTTYYASWAKGRFTISKDTSKNTVYLQMNSLRAEDTASYYCAKDLYYGPTTYSAANLWGQGTSVTVSS
VL: SYELTQPPSVSVSPGQTASITCTADTLSRSYASWYQQKPGQSPVLVIYRDTSRPSGIPERFSGSNSGNTATLTISGTQAMDEADYYCATRLFSGSNFQLFGGGTKLTVL
notes: as for B8
B12: M1301 (bispecific antibody, V domains shown)
VH: EVQLLESGGGSVQPGGSLRLSCTVSGFSLSNYAMSWVRQAPGKGLEWIGIVSSGGTTYYASWAKGRFTISKDTSKNTVYLQMNSLRAEDTASYYCAKDLYYGPTTYSAANLWGQGTSVTVSS
VL: SYELTQPPSVSVSPGQTASITCTADTLSRSYASWYQQKPGQSPVLVIYRDTSRPSGIPERFSGSNSGNTATLTISGTQAMDEADYYCATRDFSGSNFQLFGGGTKLTVL
notes: as for B8
B13: M1309 (bispecific antibody, V domains shown)
VH: EVQLLESGGGSVQPGGSLRLSCTVSGFSLSNYAMSWVRQAPGKGLEWIGIVSSGGTTYYASWAKGRFTISKDTSKNTVYLQMNSLRAEDTASYYCAKDLYYGPSTYFVANLWGQGTSVTVSS
VL: SYELTQPPSVSVSPGQTASITCTADTLSRSYASWYQQKPGQSPVLVIYRDTSRPSGIPERFSGSNSGNTATLTISGTQAMDEADYYCATRPSSGSNFQAFGGGTKLTVL
notes: as for B8
B14: M1310 (bispecific antibody, V domains shown)
VH: EVQLLESGGGSVQPGGSLRLSCTVSGFSLSNYAMSWVRQAPGKGLEWIGIVSSGGTTYYASWAKGRFTISKDTSKNTVYLQMNSLRAEDTASYYCAKDLYYGPNTDYSAANLWGQGTSVTVSS
VL: SYELTQPPSVSVSPGQTASITCTADTLSRSYASWYQQKPGQSPVLVIYRDTSRPSGIPERFSGSNSGNTATLTISGTQAMDEADYYCATRPSSGSNFQAFGGGTKLTVL
notes: as for B8
B15: M1302 (bispecific antibody, V domains shown)
VH: EVQLLESGGGSVQPGGSLRLSCTVSGFSLSNYAMSWVRQAPGKGLEWIGIVSSGGTTYYASWAKGRFTISKDTSKNTVYLQMNSLRAEDTASYYCAKDLYYGPNTDYSAANLWGQGTSVTVSS
VL: SYELTQPPSVSVSPGQTASITCTADTLSRSYASWYQQKPGQSPVLVIYRDTSRPSGIPERFSGSNSGNTATLTISGTQAMDEADYYCATRPSSGSNFQLFGGGTKLTVL
notes: as for B8

What follows are binders tested against T1, HLA-A2/MAGE-A4 complex, recombinant (HLA-A*02:01 extracellular domain, human b2m, MAGE-A4 peptide 230-239 …) (human, UniProt P04439 25-299 at identity 0.94); P61769 21-119) (assay: phage display biopanning and screening).
T1 construct: also called MAGE-A4 pMHC; MAGE-A4/HLA-A2 complex

Binder | binding result
B1 | binds
B2 | binds
B3 | binds
B4 | binds
B5 | binds
B6 | binds
B7 | binds

Each binder was assayed against T1, HLA-A2/MAGE-A4 complex, recombinant … (assay: SPR, monovalent).

Binder | Kd [nM]
B8 | 0.09
B9 | 0.07
B10 | 0.05
B11 | 0.12
B12 | 0.12
B13 | 0.09
B14 | 0.35
B15 | 0.6
